Measurements: US20190030123A1

Legend:
[1] = target: HIS-tagged neonatal Fc receptor (FcRn, No. CT009-H08H from Sino Biological Inc) (UniProt P55899); test: BLI (Octet RED 96), His-FcRn on Ni-NTA biosensor, aflibercept as analyte, pH 6.0; formulation (c), starting material T0
[2] = target: HIS-tagged neonatal Fc receptor (FcRn, No. CT009-H08H from Sino Biological Inc) (UniProt P55899); test: BLI (Octet RED 96), His-FcRn on Ni-NTA biosensor, aflibercept as analyte, pH 6.0; formulation (b), starting material T0
[3] = target: HIS-tagged neonatal Fc receptor (FcRn, No. CT009-H08H from Sino Biological Inc) (UniProt P55899); test: BLI (Octet RED 96), His-FcRn on Ni-NTA biosensor, aflibercept as analyte, pH 6.0; formulation (a), starting material T0
[4] = target: HIS-tagged neonatal Fc receptor (FcRn, No. CT009-H08H from Sino Biological Inc) (UniProt P55899); test: BLI (Octet RED 96), His-FcRn on Ni-NTA biosensor, aflibercept as analyte, pH 6.0; formulation (c), stored 3 months at 40 C/75% relative humidity
[5] = target: HIS-tagged neonatal Fc receptor (FcRn, No. CT009-H08H from Sino Biological Inc) (UniProt P55899); test: BLI (Octet RED 96), His-FcRn on Ni-NTA biosensor, aflibercept as analyte, pH 6.0; formulation (c), stored 3 months at 5 C
[6] = target: HIS-tagged neonatal Fc receptor (FcRn, No. CT009-H08H from Sino Biological Inc) (UniProt P55899); test: BLI (Octet RED 96), His-FcRn on Ni-NTA biosensor, aflibercept as analyte, pH 6.0; formulation (b), stored 3 months at 40 C/75% relative humidity
[7] = target: HIS-tagged neonatal Fc receptor (FcRn, No. CT009-H08H from Sino Biological Inc) (UniProt P55899); test: BLI (Octet RED 96), His-FcRn on Ni-NTA biosensor, aflibercept as analyte, pH 6.0; sample (d) Eylea, stored 3 months at 5 C
[8] = target: HIS-tagged neonatal Fc receptor (FcRn, No. CT009-H08H from Sino Biological Inc) (UniProt P55899); test: BLI (Octet RED 96), His-FcRn on Ni-NTA biosensor, aflibercept as analyte, pH 6.0; formulation (b), stored 3 months at 5 C
[9] = target: HIS-tagged neonatal Fc receptor (FcRn, No. CT009-H08H from Sino Biological Inc) (UniProt P55899); test: BLI (Octet RED 96), His-FcRn on Ni-NTA biosensor, aflibercept as analyte, pH 6.0; formulation (a), stored 3 months at 40 C/75% relative humidity
[10] = target: HIS-tagged neonatal Fc receptor (FcRn, No. CT009-H08H from Sino Biological Inc) (UniProt P55899); test: BLI (Octet RED 96), His-FcRn on Ni-NTA biosensor, aflibercept as analyte, pH 6.0; sample (d) Eylea, starting material T0
[11] = target: HIS-tagged neonatal Fc receptor (FcRn, No. CT009-H08H from Sino Biological Inc) (UniProt P55899); test: BLI (Octet RED 96), His-FcRn on Ni-NTA biosensor, aflibercept as analyte, pH 6.0; sample (d) Eylea, stored 3 months at 40 C/75% relative humidity
[12] = target: HIS-tagged neonatal Fc receptor (FcRn, No. CT009-H08H from Sino Biological Inc) (UniProt P55899); test: BLI (Octet RED 96), His-FcRn on Ni-NTA biosensor, aflibercept as analyte, pH 6.0; formulation (a), stored 3 months at 5 C

HIS-tagged neonatal Fc receptor (FcRn, No. CT009-H08H from Sino Biological Inc), sequence (P55899 24-297 limits assumed, chain 1 of 2): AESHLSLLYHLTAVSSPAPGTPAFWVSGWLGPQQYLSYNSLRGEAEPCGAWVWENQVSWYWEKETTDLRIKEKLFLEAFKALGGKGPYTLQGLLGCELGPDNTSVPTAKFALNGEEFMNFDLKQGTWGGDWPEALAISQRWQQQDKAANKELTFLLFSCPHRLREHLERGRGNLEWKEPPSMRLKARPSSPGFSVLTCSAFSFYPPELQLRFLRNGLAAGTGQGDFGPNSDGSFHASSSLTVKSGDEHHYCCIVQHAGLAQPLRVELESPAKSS
HIS-tagged neonatal Fc receptor (FcRn, No. CT009-H08H from Sino Biological Inc), sequence (chain, as listed by the source H08H H08H limits assumed, chain 2 of 2): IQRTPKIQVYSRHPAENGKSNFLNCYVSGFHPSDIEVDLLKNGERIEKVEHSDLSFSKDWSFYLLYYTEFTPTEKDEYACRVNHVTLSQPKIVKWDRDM

Substance “aflibercept (from UniProt P17948 129-230; P35968 225-327) (Fc fusion)” has a Kd [1] of 0.107 nM, a koff [1] of 6.44e-05 s⁻¹ and a kon [1] of 605000 M⁻¹ s⁻¹. The koff [2] was 6.47e-05 s⁻¹, the kon [2] was 613000 M⁻¹ s⁻¹ and the Kd [3] was 0.118 nM. The koff [3] was 6.56e-05 s⁻¹, the kon [3] was 556000 M⁻¹ s⁻¹ and the Kd [4] was 0.0591 nM. The koff [4] was 2.71e-05 s⁻¹, the kon [4] was 459000 M⁻¹ s⁻¹ and the Kd [5] was 0.103 nM. The koff [5] was 6.28e-05 s⁻¹, the kon [5] was 610000 M⁻¹ s⁻¹ and the Kd [6] was 0.0591 nM. The koff [6] was 2.86e-05 s⁻¹, the kon [6] was 483000 M⁻¹ s⁻¹ and the Kd [7] was 0.0968 nM. The koff [7] was 6.11e-05 s⁻¹, the kon [7] was 631000 M⁻¹ s⁻¹ and the Kd [8] was 0.0923 nM. For the same substance, the koff [8] was 5.71e-05 s⁻¹, the kon [8] was 619000 M⁻¹ s⁻¹ and the Kd [9] was 0.0905 nM. It also gave a koff [9] of 4.11e-05 s⁻¹, a kon [9] of 454000 M⁻¹ s⁻¹ and a Kd [10] of 0.0993 nM. The koff [10] was 5.56e-05 s⁻¹, the kon [10] was 560000 M⁻¹ s⁻¹ and the Kd [11] was 0.0609 nM. The koff [11] was 3e-05 s⁻¹, the kon [11] was 493000 M⁻¹ s⁻¹ and the Kd [12] was 0.098 nM. The koff [12] was 5.84e-05 s⁻¹ and the kon [12] was 596000 M⁻¹ s⁻¹.
